Legend:
[1] = system: Pancreatin from porcine pancreas; experiment: In vitro digestion of lunasin with pancreatin, with or without protease inhibitors; format: in vitro ADME; details: inhibitor 18,000 ng, lunasin 600 ng, pancreatin 600 ng, 1 h at 37°C; also after heat denaturation of the inhibitor
Procedure: Figure 2 Soy-derived BBI and KTI protect synthetic lunasin from in vitro digestion. The upper, lighter bands are Coomassie Blue protein stains and the lower, darker bands are Western blots. (M) Markers, (1) Lunasin (600 ng) + pancreatin (600 ng) incubated for 0 h at 37°C, (2) Lunasin (600 ng) + pancreatin (600 ng) incubated for 1 h at 37°C, (3) Lunasin (600 ng) + BBI (18,000 ng, unboiled) + pancreatin (600 ng) incubated for 1 h at 37°C, (4). Lunasin (600 ng) + KTI (18,000 ng, unboiled) + pancreatin (600 ng) incubated for 1 h at 37°C, (5) Lunasin (600 ng) + BBI (18,000 ng, boiled) + pancreatin (600 ng) incubated for 1 h at 37°C, (6) Lunasin (600 ng)+KTI (18,000 ng, boiled) + pancreatin (600 ng) incubated for 1 h at 37°C, (7) BBI (unboiled), (8) KTI (unboiled).
In vitro digestion of lunasin was carried out following the method published in the United States Pharmacopeia. Synthetic lunasin (American Peptide Company, Inc. Sunnyvale, CA, USA) (5 µg) was incubated with the protease inhibitors BBI or KTI (Sigma, St. Louis, MO, USA) for 30 min at 25°C. Pancreatin from porcine pancreas (Sigma) was added (enzyme∶protein ratio of 1∶10) and solution was incubated at 37°C for 1 h. Tris-tricine sample buffer was added at the end of the reaction and immediately stopped by placing the tubes in a boiling water bath for 5 min. The digests were analyzed by SDS-PAGE and Western-Blot following the protocol previously described.

MDA-MB-231 tumors = experiment: In situ TUNEL assay for apoptosis in xenograft tumor sections; format: in vivo, athymic NCr-nu/nu mice; details: lunasin 20 and 4 mg/kg (P = 0.0088, 0.0141 vs control), BBI 20 mg/kg i.p.
Procedure: In situ terminal deoxynucleotidyl transferase-mediated dUTP nick end labeling (TUNEL) assay was performed using ApopTag Detection Kit (Millipore, USA & Canada) and ran based on the manufacturer's protocol. Briefly, deparaffinized and rehydrated sections were pretreated with 20 µg/mL proteinase K for 15 min and incubated with terminal transferase and digoxigenin dUTP at 37°C for 1 h. After washing, sections were incubated with antidigoxigenin rhodamine (Millipore) and DAPI (Invitrogen), and slides were visualized by fluorescent microscopy (Axiophot 381). The apoptotic cells were calculated as percentage of positive cells over total number of cells counted in microscope at 400× magnification.

[2] = system: Ki-67 expression in MDA-MB-231 tumors; experiment: Immunohistochemical staining of xenograft tumor sections for Ki-67 labeling index; format: in vivo, athymic NCr-nu/nu mice; details: 20 mg/kg body weight i.p.; tumors collected 7 weeks after cells injection
Procedure: Sections were evaluated for tumor cell cytology, growth pattern, necrosis and apoptosis. The 5 µm sections were deparaffinized and rehydrated and antigens were retrieved using citrate buffer (pH 6.0) before endogenous peroxidase activity was blocked. Proliferation was shown using an antibody against Ki-67 (MIB-1; DakoCytomation, Glostrup, Denmark, dilution 1∶75). Antigen expression was expressed using streptavidin conjugated to horseradish peroxidase and visualized by diaminobenzidine chromogen reagent (DakoCytomation). All immunohistochemistry slides were examined by light microscopy (Axiophot 381, Zeiss, Germany). Ki-67 labeling index was calculated as percentage of positive cells over total number of cells counted in microscope at 400× magnification.

[3] = system: MDA-MB-231 tumor xenografts; experiment: Breast cancer prevention in MDA-MB-231 xenograft mouse model; format: in vivo, athymic NCr-nu/nu mice
Procedure: Human MDA-MB-231 breast cancer cells were obtained from ATCC and grown in Leibovitz's L-15 Medium supplemented with 10% FBS, 100 unit/ml penicillin, and 100 µg/ml streptomycin (Invitrogen), in a humidified atmosphere at 37°C.
Mice protocol was approved by ACUC (University of California, Berkeley, CA, USA). Thirty-two six weeks-old athymic NCr-nu/nu mice (National Cancer Institute, Frederick, MD, USA) were acclimatized for 1 week and randomly divided into four groups (n = 8): control group (receiving PBS), BBI-group (receiving BBI at 20 mg/kg body weight), and two lunasin-groups (receiving synthetic lunasin [Chengdu KaiJie Bio-Pharmaceutical Co., Chengdu, P.R. China] at 20 mg/kg body weight and 4 mg/kg body weight). After two months of i.p. treatment three times a week, mice were injected subcutaneously in the right flank with 1×10^7 MDA-MB-231 cells suspended in 0.1 ml of Matrigel Basement Membrane Matrix (Becton Dickinson, Bedford, MA, USA). Tumor growth was monitored by palpation, and the onset when tumors were detectable was noted. Tumor size was measured with calipers, and tumor volume was calculated assuming the shape as ellipsoid. Tumor incidence in percentage was calculated as the number of tumor-bearing mice divided by the total number of mice in each group, whereas tumor generation was calculated as the total number of tumors divided by total number of mice in each group. The volume of the tumor was determined using the following formula: tumor volume = length × width^2 ×0.523 [41].
At the end of the experiment, animals were sacrificed, and tumors were dissected and weighed. Individual tumors were split for fixation in the Shando Glyo-Fixx™ (Thermo Scientific, Pittsburgh, PA, USA) for histological examination. The paraffin-embedded sections were stained with hematoxylin and eosin (H&E).

[4] = system: DMBA-induced NIH3T3 cells; experiment: Foci formation assay in DMBA-induced NIH3T3 cells; format: cell-based; details: 100 nM peptide; 1.5 µg/ml DMBA; 6 weeks; n = 6
Procedure: The foci formation assay was performed according to Reznikoff et al. NIH3T3 cells were obtained from American Type Culture Collection (ATCC) and cultured in RPMI 1640 medium supplemented with 10% fetal bovine serum (FBS) (Invitrogen, Carlsbad, CA, USA). Cells were plated at a density of 500 cells/well in 12-well plates, incubated overnight at 37°C and treated with lunasin or BBI for 4 hrs. Then, cells were treated with 1.5 µg/ml DMBA for 20 hrs. After washing with PBS, fresh medium was added. Peptides were added and medium was changed every week for 6 weeks. At the end of experiment, cells were washed with 0.9% NaCl, fixed with methanol, stained with Giemsa, and scored for transformed foci. The negative control was a set of cells receiving no DMBA, while the positive control consisted of cells induced by DMBA but without treatment.

B1: KTI: soy Kunitz Trypsin Inhibitor, a protease inhibitor contained in soybean (protein, UniProt P01070 25-205, looked up)
Trypsin inhibitor A: DFVLDNEGNPLENGGTYYILSDITAFGGIRAAPTGNERCPLTVVQSRNELDKGIGTIISSPYRIRFIAEGHPLSLKFDSFAVIMLCVGIPTEWSVVEDLPEGPAVKIGENKDAMDGWFRLERVSDDEFNNYKLVFCPQQAEDDKCGDIGISIDHDDGTRRLVVSKNKPLVVQFQKLDKESL
protection of lunasin from in vitro digestion with pancreatin [1]: protect lunasin from digestion

B2: BBI: polypeptide of 71 amino acids with the ability to inhibit the serine proteases trypsin and chymotrypsin (protein, UniProt P01055 40-110, looked up)
Bowman-Birk type proteinase …: DDESSKPCCDQCACTKSNPPQCRCSDMRLNSCHSACKSCICALSYPAQCFCVDITDFCYEPCKPSEDDKEN
TUNEL-positive apoptotic cells in tumors (MDA-MB-231 tumors): Few TUNEL-positive cells
reduction of Ki-67 expression compared with the control group [2]: no significant difference
tumor incidence (mice showing tumors) ([3]; 20 mg/kg body weight i.p. three times a week, seven weeks post-cells injection, n = 8): 88%
tumor incidence lower compared with the control ([3]; 20 mg/kg body weight i.p., seven weeks post-cells injection): no effect
tumor generation ([3]; 20 mg/kg body weight i.p., versus vehicle-treated group): ineffective
body weight ([3]; i.p. three times a week, BBI 20 mg/kg, lunasin 20 and 4 mg/kg body weight, compared among the four groups, n = 8): No significant differences
reduction of foci formation [4]: 60%
protection of lunasin from in vitro digestion with pancreatin [1]: protect lunasin from digestion

Source: publication PMC2811193, “Complementary Roles in Cancer Prevention: Protease Inhibitor Makes the Cancer Preventive Peptide Lunasin Bioavailable” (PLoS ONE, 2010)
